Results: article PMC1092277

Experiments:
[1] = biological target: GST-Pax6 HD (wild type) (zebrafish); experiment: pull-down
[2] = biological target: GST-Pax6 HD R44A/R53A/R57A (zebrafish); experiment: pull-down
[3] = biological target: GST-Chx10 HD R44A (murine); experiment: pull-down
[4] = biological target: GST-Chx10 HD R53A (mouse, UniProt Q61412 148-207, R200A); experiment: EMSA
[5] = biological target: GST-Pax6 HD R58A (zebrafish, UniProt P26630 229-288, R286A); experiment: EMSA
[6] = biological target: GST-Chx10 HD Q50A (mouse, UniProt Q61412 148-207, Q197A); experiment: EMSA
Chain of GST-Chx10 HD Q50A (Q61412 148-207 Q197A): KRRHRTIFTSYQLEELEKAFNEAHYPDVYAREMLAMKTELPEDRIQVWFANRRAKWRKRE

[7] = biological target: GST-Pax6 HD R57A (zebrafish, UniProt P26630 229-288, R285A); experiment: EMSA
Chain of GST-Pax6 HD R57A (P26630 229-288 R285A): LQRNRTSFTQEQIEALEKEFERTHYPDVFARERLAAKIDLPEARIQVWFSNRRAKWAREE

[8] = biological target: GST-Pax6 HD R44A (zebrafish, UniProt P26630 229-288, R272A); experiment: EMSA
Chain of GST-Pax6 HD R44A (P26630 229-288 R272A): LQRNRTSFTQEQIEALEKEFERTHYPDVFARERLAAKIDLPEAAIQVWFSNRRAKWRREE

[9] = biological target: GST-Pax6 HD N51Q (zebrafish, UniProt P26630 229-288, N279Q); experiment: EMSA
Chain of GST-Pax6 HD N51Q (P26630 229-288 N279Q): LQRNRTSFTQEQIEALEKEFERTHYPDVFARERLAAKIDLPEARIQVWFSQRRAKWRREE

[10] = biological target: GST-Chx10 HD R57A (mouse, UniProt Q61412 148-207, R204A); experiment: EMSA
Chain of GST-Chx10 HD R57A (Q61412 148-207 R204A): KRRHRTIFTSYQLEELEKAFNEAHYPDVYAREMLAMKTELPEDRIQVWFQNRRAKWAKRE

[11] = biological target: GST-Pax6 HD R53A (zebrafish, UniProt P26630 229-288, R281A); experiment: EMSA
Chain of GST-Pax6 HD R53A (P26630 229-288 R281A): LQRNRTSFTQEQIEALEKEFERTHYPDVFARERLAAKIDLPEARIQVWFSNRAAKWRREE

Chain of GST-Chx10 HD R53A (Q61412 148-207 R200A): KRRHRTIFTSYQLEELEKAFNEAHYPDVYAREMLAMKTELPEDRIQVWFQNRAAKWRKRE
Chain of GST-Pax6 HD R58A (P26630 229-288 R286A): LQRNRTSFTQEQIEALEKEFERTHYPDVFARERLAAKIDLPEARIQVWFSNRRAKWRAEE

Pax6ΔHD(E101A/E112A/E120A/E128A)
percent binding [1]: 11%

Pax6ΔHD(E112A/E120A/E128A)
percent residual binding [1]: 15%

Pax6ΔHD(E112A/E120A/D123A/E128A)
percent binding [1]: 5%

Pax6ΔHD (in vitro translated)
percent binding compared with the wild-type HD [2]: < 10% | percent binding [3]: 50%

B1: HDp3 (dsDNA)
DNA 1: GATCCTCTAGATAATGCGATTAGCGTAG
DNA 2: GATCCTACGCTAATCGCATTATCTAGAG
binding result [4]: no binding | binding result [5]: binds | binding result [6]: binds | binding result [7]: binds | binding result [8]: no binding | binding result [9]: no binding | binding result [10]: binds | binding result [11]: no binding
